Test results from paper PMC5327412, “Characterization of the CD177 interaction with the ANCA antigen proteinase 3” (Scientific Reports, 2017).
Where two headings read alike, the source gives them in different places. Values belong to the molecule of their own block, whether it stands above or below them.

Target: T1, recombinant CD177 (UniProt Q8N6Q3 22-408)
T1 construct: CD177, GPI-anchored neutrophil membrane receptor; recombinant soluble form that lacks the C-terminal GPI-anchor domain; secreted via an N-terminal Ig1 secretion signal peptide; Made from plasmid pTT5; also called rCD177; not shown: Fc (human Ig1), C-terminal, cleaved
T1 sequence (looked up): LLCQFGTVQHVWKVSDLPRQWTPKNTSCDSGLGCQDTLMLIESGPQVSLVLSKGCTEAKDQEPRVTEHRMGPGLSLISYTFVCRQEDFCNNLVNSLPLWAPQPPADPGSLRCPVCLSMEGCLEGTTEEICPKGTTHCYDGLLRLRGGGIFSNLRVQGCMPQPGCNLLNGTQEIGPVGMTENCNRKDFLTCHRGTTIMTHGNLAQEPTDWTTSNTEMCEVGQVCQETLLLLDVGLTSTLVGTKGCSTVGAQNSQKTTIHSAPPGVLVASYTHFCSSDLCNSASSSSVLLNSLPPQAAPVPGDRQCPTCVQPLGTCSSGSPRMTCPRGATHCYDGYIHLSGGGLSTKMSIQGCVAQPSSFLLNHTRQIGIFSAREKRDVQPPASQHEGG
Assay: SPR; CD177 immobilised on a GLH sensor chip by standard amine chemistry, PR3 as soluble analyte; ProteOn XPR36

- Kd: 57 nM
Molecule: monomeric PR3 hydrophobic patch mutant (Ile217Ala, Trp218Ala) (enzyme)

- Kd: 4.1 nM
Molecule: recombinant PR3 (enzyme)

- Kd (both partners purified): 4.1 nM
B1: neutrophil-derived PR3 (enzyme, UniProt P24158 28-248, looked up)
chain: IVGGHEAQPHSRPYMASLQMRGNPGSHFCGGTLIHPSFVLTAAHCLRDIPQRLVNVVLGAHNVRTQEPTQQHFSVAQVFLNNYDAENKLNDVLLIQLSSPANLSASVATVQLPQQDQPVPHGTQCLAMGWGRVGAHDPPAQVLQELNVTVVTFFCRPHNICTFVPRRKAGICFGDSGGPLICDGIIQGIDSFVIWGCATRLFPDFFTRVALYVDWIRSTLR
notes: Proteinase 3 (PR3), neutrophil serine protease, purified from neutrophils, proteolytically active; also called nPR3; proteinase 3; source: bought: Athens Research&Technology; neutrophil-derived
